# Biological target: T1, dADAR dsRBD1 (UniProt Q9NII1 48-140)
# T1 sequence: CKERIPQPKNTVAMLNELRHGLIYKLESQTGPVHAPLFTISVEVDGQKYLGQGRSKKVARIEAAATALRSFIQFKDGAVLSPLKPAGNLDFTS
# Assay: ITC
binder,measurement,value
GGUAGUAUAACAAUAUCCGUGUUGUUAUAGUACC (structured_RNA) [GluR-2 R/G upper stem-loop (GluR-2 USL) with GluR-3 tetraloop],Kd,400 ± 50 nM

# From publication PMC3539133
